Data from article PMC7291619.

Target: in vitro-polymerized and paclitaxel-stabilized microtubules (UniProt P02554)
Test: co-sedimentation; varied concentrations of purified His-TbSpef1 incubated with in vitro-assembled, paclitaxel-stabilized microtubules at room temperature for 30 min; diluted in cushion buffer (80 mM PIPES pH 7.0, 1 mM MgCl2, 1 mM EGTA, 60% glycerol, 20 uM paclitaxel); 100,000 x g, 30°C, 30 min; pellets and supernatants immunoblotted

Sequence of in vitro-polymerized and paclitaxel-stabilized microtubules (P68363 whole entry, chain 1 of 2): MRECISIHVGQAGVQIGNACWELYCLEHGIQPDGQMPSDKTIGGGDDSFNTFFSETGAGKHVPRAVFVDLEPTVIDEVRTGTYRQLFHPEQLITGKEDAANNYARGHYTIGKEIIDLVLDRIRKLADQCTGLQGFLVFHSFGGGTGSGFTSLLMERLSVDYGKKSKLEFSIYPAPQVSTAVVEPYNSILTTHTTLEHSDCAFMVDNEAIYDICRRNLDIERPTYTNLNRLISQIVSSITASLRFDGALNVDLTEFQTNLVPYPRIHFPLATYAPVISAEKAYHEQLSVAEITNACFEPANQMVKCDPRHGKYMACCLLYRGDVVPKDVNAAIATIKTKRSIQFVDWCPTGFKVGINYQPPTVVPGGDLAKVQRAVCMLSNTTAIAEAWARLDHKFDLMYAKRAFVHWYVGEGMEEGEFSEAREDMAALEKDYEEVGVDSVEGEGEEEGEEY
Sequence of in vitro-polymerized and paclitaxel-stabilized microtubules (P02554 whole entry, chain 2 of 2): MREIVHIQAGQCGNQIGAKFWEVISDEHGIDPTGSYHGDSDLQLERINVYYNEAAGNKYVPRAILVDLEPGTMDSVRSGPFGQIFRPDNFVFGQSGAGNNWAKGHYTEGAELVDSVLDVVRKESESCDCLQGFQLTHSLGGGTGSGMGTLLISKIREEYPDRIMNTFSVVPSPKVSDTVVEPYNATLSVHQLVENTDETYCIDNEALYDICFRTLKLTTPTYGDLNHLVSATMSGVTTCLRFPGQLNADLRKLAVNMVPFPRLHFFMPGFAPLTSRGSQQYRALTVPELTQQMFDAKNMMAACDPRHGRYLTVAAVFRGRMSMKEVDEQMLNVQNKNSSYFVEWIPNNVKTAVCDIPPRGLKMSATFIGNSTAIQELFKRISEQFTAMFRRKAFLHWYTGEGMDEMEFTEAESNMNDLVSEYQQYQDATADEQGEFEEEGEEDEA

In the case of His-TbSpef1 (natural protein), the stoichiometry N (TbSpef1 per α/β-tubulin dimer) is reported as > 1.
